Experiment: soluble on expression in E. coli; label from the status in PepcDB or PDB records

| Sequence | soluble on expression in E. coli |
| --- | --- |
| MSLTYILRRSQLLLIVSSYQLVHYLCSQLSSLKDASCMCAYILTTLYKDIDMELAEKDKGRDFTLRNARMDDIDQIIKINRLTLPENYPYYFFVEHLKEYGLAFFVAIVDNSVVGYIMPRIEWGFSNIKQLPSLVRKGHVVSIAVLEEYRRKGIATTLLEASMKSMKNDYNAEEIYLEVRVSNYPAIALYEKLNFKKVKVLKGYYADGEDAYLMARPLEGHHHHHH | not soluble |
| MSLVACECLPSPGLEPEPCSRARSQAHVYLEQIRNRVALGVPDMTKRDYLVDAATQIRLALERDVSEDYEAAFNHYQNGVDVLLRGIHVDPNKERREAVKLKITKYLRRAEEIFNCHLQRPLSSGASPSAVQLVQDPATGGTFVVKSLPRCHMVSRERLTIIPHGVPYMTKLLRYFVSEDSIFLHLEHVQGGTLWSHLLSQAHSRHSGLSSGSTQERMKAQLNPHLNLLTPARLPSGHAPGQDRIALEPPRTSPNLLLAGEAPSTRPQREAEGEPTARTSTSGSSDLPKAPGGHLHLQARRAGQNSDAGPPRGLTWVPEGAGPVLGGCGRGMDQSCLSADGAGRGCGRATWSVREEQVKQWAAEMLVALEALHEQGVLCRDLHPGNLLLDQAGHIRLTYFGQWSEVEPQCCGEAVDNLYSAPEVGGISELTEACDWWSFGSLLYELLTGMALSQSHPSGIQAHTQLQLPEWLSRPAASLLTELLQFEPTRRLGMGEGGVSKLKSHPFFSTIQWSKLVGTSLETHLRTLIHWLSGPKPDCPG | soluble |
| MSLVINAPFKVIASKVTAEVLKSVNSKLGSYSTNYATSSEARATNVAVATRSIDGKVVMPGETFSFNEVVGERTRARGYKEAGVIVNQKLESGFGGGVCQVSSTLYNALLRSNIKMTERVHHTFPSSYVPTGLDATVDWGNIDLKFKNTFKYPIYIQGYTGGREVGFNIYSNSELARTRCEITSEVYKKIEPRTEYINDSNLPAGAMEVVKSGHTGYRVKSYRSIYKDGKFVAKELIANDYYVPVNGVVKRGTREGHHHHHH | soluble |
| MSLVKIKEVAMNIKINEIKMTPPTAFTPGQVIEEQEVISPSMLALQELQETTGAALYETMEEIGMALSGKLRENYKFTDAEKLERRQQALLRLIKQIQEDNGATLRPLTEENSDPDLQNAYQIIALAMALTAGGLSKKKKRDLQSQLDTLTAEEGWELAVFSLLELGEVDTATLSSLKRFMQQAIDNDEMPLSQWFRRVADWPDRCERVRILLRAVAFELSICIEPSEQSRLAAALVRLRRLLLFLGLEKECQREEWICQLPPNTLLPLLLDIICERWLFSDWLLDRLTAIVSSSKMFNRLLQQLDAQFMLIPDNCFNDEDQREQILETLREVKINQVLFEGHHHHHH | soluble |
| MSLVKNEEKLLEVINKYELNSIFSQEIMPFLELHMFKKNEHICFMNEELNYLYFFVHGKAKVYKTLPNGKSLLLEFYEPVQLIGDLELISKIKANCNVKALKSSLCIAIPIQAVNSIALKDLNFLMYITKNLSNKLAKCSVTSSITITYPLETKLASYLLAMNSNNIIMIDNYSNLADLLGTSYRHLNRVLNKLVEKGIILKDKNEIKILNKEELENICVDLNEGHHHHHH | soluble |
| MSLVLDKLLYTGYNRLIDLGWRRSGHYLYKPNGKTSCCSLYTIRLDSYNFKIAKEQKKAIKKWVKYVNGKPLKPMKSEISTDYLNNAFQTIESLGAEKYSVTMEPCTYTDEKFEVFKKYQMQVHLEKEEEITKKGFSRFLCNSPLFNEDKGIKYGSYHQMYRFQGRLVAVGVLDLLPHGVSSVYLFYDPDMSKFSLGRISACREIWLALECGYRYYYMGYYIHTCPKMKYKATYSPSYLLNPGTNKWIPIENFTSLWNTGAPKYISFGDENNSDIQTAVDYDSSEDSSQNEDDYTLFNRQLPGILSVNVAESLVSENFANIGNSTFPTRHVLSYFPQVKHWFVEINAAVGEEVAKSYTLVLSSEGHHHHHH | not soluble |
| MSLVLMIVSGRSGSGKSVALRALEDMGFYCVDNLPVVLLPDLARSLADRNISAAVSIDVRNMPESPEIFEQAMQNLPECFSPQLLFLDADRNTLIRRYSDTRRLHPLSSKNLSLESAIDEESDLLEPLRSRADLIVDTSEMSVHELAEMLRTRLLGKRERELTMVFESFGFKHGIPIDADYVFDVRFLPNPHWDPKLRPMTGLDKPVAAFLDRHTEVHNFIYQTRSYLELWLPMLETNNRSYLTVAIGCTGGKHRSVYIAEQLADYFRSRGKNVQSRHRTLEKRKSEGGSHHHHHH | soluble |
| MSLVRDIKTFKFFEVLLIYEMLEVLKALAMMNATRKVVKISSKELAEHIGQSLQTAARKLKELEDEGLIDRTLTKDGQFVVITEKGKQLLYKEYMDYKKIFDDEGTIKIKGEVFSGVGEGRYYVSLEGYRKQFREKLGFDPYPGTLNLRIPKEEMYFRRRLDEERGILIEGFSTEDRTFGEVKAFKCRINGIEGAIVIPKRTHYPAEILEVISPVKLRDKLGLKDGDFVEVEVILEGHHHHHH | soluble |
| MSLVTIKDIARNLGISYSTVSRCLNNNPNVSEKTKKKVVEEANRLGFHFNVNARNLAKKETNRIGVIFSNNFNHQDTRKFFSDIMDSSINSIETNKYDFIIQPNNNISGDSNVYKMVNGQMVDGLVIVSQSIKKEEYDFLKDNNFPHVFIYFKPSFIGEVDNFFWDDNVYGGYIATKHLIDHGHKDIITVTSDDKSSKMHEDRTKGYLNAMEEANLKTEVIKSKMDFESQVEFLEKYIDKIKKASAIFVQQDVPAISIIQELKTTYGINVPEDISIIGYNNIELISYFRSHLSTIDDPREQVIKNGVDSLVNIINKKSTEHIPRKLYPRLIIRNSVKRIKEGHHHHHH | soluble |
| MSLWTIMIGSKNRAKVHALQEVVIRDKIIVRSEAVPSDVASQPFSDQETIQGAINRANHCLSFDGVDYGVGLEGGVVRSEYGLFLCNWGALVSQTGDQWVAGGARVPLPQEVAHELEGGKELGDIMESLTKNPDVRMTDGAIGYLTDGEISRKAMFQHVVHLLIGQARRDGHLLRTVTHEGHHHHHH | soluble |
| MSLYLEKYYYEKNIQEEFFKFLYSMTGKKEEIVVICIGDPVFEGNILAPLVGTLLHERNIPNVYGTLKEPVYEINIKEIYNKILKKYDNPYIILVASSFPVDFHDEREVIVLKNDPYEIQTASGSLKLGNASFIVVFDLEDSYCKVNFIEKLGIRKIYKYSEAIFKTLYYILHNKNYVKEGHHHHHH | soluble |
| MSLYPLVLDLAATGVPVAVTCRELGFTKQGFYKWCAHPVSARDWDEAHLINAAYDVHTDDPEFGHRFIADELHAAGLQTSERRVWRLCSQQQLFSHTIKRARKHGKKPGPPVCDDLVERDFTAKAINELWLTDVTEHHTSEGKLYMCAVKDVFSNRIVGYAIDSRMKSRLAVAAIDDAVARRGGSGMIAGCVVHSDRGSQFRSRKFQQALRHYGLVGSMGRVGAAGDNAAMESFFAVLQKNVLDRGRWDTRARLRTAIVHWVERTYHRKRRQRRLGKLTPVEYELVHQKAVALAAEGHHHHHH | not soluble |
| MSLYQEFFTFIPVDIEELDKAFGGGLIRGATISIMYDAFSLGWALGFEMVKNLIRRNSFGVIHNYNLPTIKLISRASFVGLNIQELAKRKEIMILDVFGSKYDVPPYADYVLQVPNPTPETLNPKIESVYENKIFQVAGDRRIVKLVYTLDGVATMFGEEVAIKLLNGELAWLAKMYGKRNVMTILLLNVDMVSKKFIAWTSGVSDIVITFQSLTEEREGELVERMTVIKSLNPEFEPTSYEFRVTATGTGSHALDFRKIENEGHHHHHH | not soluble |
| MSMSDINKNSELIFIPAPGIGHLASALEFAKLLTNHDKNLYITVFCIKFPGMPFADSYIKSVLASQPQIQLIDLPEVEPPPQELLKSPEFYILTFLESLIPHVKATIKTILSNKVVGLVLDFFCVSMIDVGNEFGIPSYLFLTSNVGFLSLMLSLKNRQIEEVFDDSDRDHQLLNIPGISNQVPSNVLPDACFNKDGGYIAYYKLAERFRDTKGIIVNTFSDLEQSSIDALYDHDEKIPPIYAVGPLLDLKGQPNPKLDQAQHDLILKWLDEQPDKSVVFLCFGSMGVSFGPSQIREIALGLKHSGVRFLWSNSAEKKVFPEGFLEWMELEGKGMICGWAPQVEVLAHKAIGGFVSHCGWNSILESMWFGVPILTWPIYAEQQLNAFRLVKEWGVGLGLRVDYRKGSDVVAAEEIEKGLKDLMDKDSIVHKKVQEMKEMSRNAVVDGGSSLISVGKLIDDITGSN | soluble |
| MSMSSTVIKFRAGVCEYNEDSRLCTPIPVQGEIEIKPNEEEELGFWDFEWRPTEKPVGRELDPISLILIPGETMWVPIKSSKSGRIFALVFSSNERYFFWLQEKNSGNLPLNELSAKDKEIYNKMIGVLNNSSESDEEESNDEKQKAQDVDVSMQD | soluble |
| MSNDHLETTGSSDPNTNLLKYLPIVLNPDRTITRPIQIPSTAASPDPTSSSPVLTKDLALNPLHNTFVRLFLPRHALYNSAKLPLVVYFHGGGFILFSAASTIFHDFCCEMAVHAGVVIASVDYRLAPEHRLPAAYDDAMEALQWIKDSRDEWLTNFADFSNCFIMGESAGGNIAYHAGLRAAAVADELLPLKIKGLVLDEPGFGGSKRTGSELRLANDSRLPTFVLDLIWELSLPMGADRDHEYCNPTAESEPLYSFDKIRSLGWRVMVVGCHGDPMIDRQMELAERLEKKGVDVVAQFDVGGYHAVKLEDPEKAKQFFVILKKFVVDSCTTKLKLN | soluble |
| MSNLNPCMTCGACCAFFRVSFYWAEADDAGGTIPARLTEQISPFHRCMSGTNQKNPRCIALAGTPGKNACCTIYKNRSSTCREFAMSGENGVVNEACNRARAKYGLTPL | not soluble |
| MSNNGSSPLVLWYNQLGMKDVDRVGGKNASLGEMITNLSGMGVSVPNGFATTADAFNQFLDQSGVNQRIYELLDKTDIDDVTQLAKAGAQIRQWIIDTPFQPELENAIREAYAQLSADDENASFAVRSSATAEDMPDASFAGQQETFLNVQGFDAVLVAVKHVFASLFNDRAISYRVHQGYDHRGVALSAGVQRMVRSDLASSGVMFSIDTESGFDQVVFITSAWGLGEMVVQGAVNPDEFYVHKPTLAANRPAIVRRTMGSKKIRMVYAPTQEHGKQVKIEDVPQEQRDIFSLTNEEVQELAKQAVQIEKHYGHPMDIEWAKDGHTGKLFIVQARPETVRSRGQVMERYTLHSQGKIIAEGRAIGHRIGAGPVKVIHDISEMNRIEPGDVLVTDMTDPDWEPIMKKASAIVTNRGGRTCHAAIIARELGIPAVVGCGDATERMKDGENVTVSCAEGDTGYVYAELLEFSVKSSSVETMPDLPLKVMMNVGNPDRAFDFACLPNEGVGLARLEFIINRMIGVHPRALLEFDDQEPQLQNEIREMMKGFDSPREFYVGRLTEGIATLGAAFYPKRVIVRLSDFKSNEYANLVGGERYEPDEENPMLGFRGAGRYVSDSFRDCFALECEAVKRVRNDMGLTNVEIMIPFVRTVDQAKAVVEELARQGLKRGENGLKIIMMCEIPSNALLAEQFLEYFDGFSIGSNDMTQLALGLDRDSGVVSELFDERNDAVKALLSMAIRAAKKQGKYVGICGQGPSDHEDFAAWLMEEGIDSLSLNPDTVVQTWLSLAELKK | not soluble |
| MSNPILTSTLIILRGNSSSGKTTIAKQLQEHFGQGTLLVSQDVVRRDMLRVHDTMGNLSHDLLFEITKYGKGKCEFVILEGILNSHRYGEMLKELIRYFDENAFAYYFDLSLEETIRRHNTRDKRHEFGEDSLQKWYNPHDTIKVATETIFTDNFTQKDIFDAILNDVAIEKQALEHHHHHH | soluble |
| MSNQDYTGVRVEGARKLRSTLKKAGIDVRDDMKQAHKDAASIVSRRAAQITPVGPGSRRHKPGQLKASVRPAGTQTAAIVRAGKKRVPYAGPIQWGWHKRKIKPTFFLTRAASDTEPAWLKGYEKKFNQILDSIEGK | not soluble |

Source: the DeepSol protein solubility set
